Experimental findings from patent US20180230214A1 are described below.

This experiment addresses biotinylated soluble human CD56 (human) (UniProt P13591). The experiment can be described thus: flow cytometry of 56-28z-LNGFR transduced T cells stained with biotinylated soluble human CD56 (y axis 'sCD56 binding') against LNGFR (x axis). The other quadrants of this panel read 0.56 (upper left), 41.8 (lower left) and 33.1 (lower right). The sCD56 signal rises with LNGFR to about 10^3. The untransduced T cell control panel reads 0.57 (upper left), 0.27 (upper right), 97.6 (lower left) and 1.61 (lower right).

Substance “56-28z CAR (scFv of murine anti-human CD56 antibody N901 fused to CD28/CD3z domains)” registered a quadrant number, cells positive for sCD56 binding and for LNGFR (upper right quadrant) of 24.5%.
